Test: soluble on expression in E. coli; label from the status in PepcDB or PDB records

Soluble on expression in E. coli, not soluble:
MGSDKIHHHHHHMLLNVKQDFCLAGPGYLLNHSVGRPLKSTEQALKQAFFAPWQESGREPWGQWLGVIDNFTAALASLFNGQPQDFCPQVNLSSALTKIVMSLDRLTRDLTRNGGAVVLMSEIDFPSMGFALKKALPASCELRFIPKSLDVTDPNVWDAHICDDVDLVFVSHAYSNTGQQAPLAQIISLARERGCLSLVDVAQSAGILPLDLAKLQPDFMIGSSVKWLCSGPGAAYLWVNPAILPECQPQDVGWFSHENPFEFDIHDFRYHPTALRFWGGTPSIAPYAIAAHSIEYFANIGSQVMREHNLQLMEPVVQALDNELVSPQEVDKRSGTIILQFGERQPQILAALAAANISVDTRSLGIRVSPHIYNDEADIARLLGVIKANR, MGSDKIHHHHHHMLLRKAFKFEIRPNGEQIRKIKQFCGCSRFVFNRALAWQNEQYEQDNNQKFSYSKLTSLLPQWKKELIWLKECHSQVLQQSLKDLESAFKNFFQQRADFPKFKKKGIKESFRFPQGCKIQPQNDRLYLPKIGWVRYRNSREIVGEVKNVTVSQKCGRFFVSIQTEFEHEIPMHKGGEIGIDMGIARFATLSNGEFFEPINAFKTYKGKLAKLQKQLKNKVKFSKNWQKLKEKIGKLHHKIANCRKDFLHKISTQISKNHAMIYVEDLQVANMSKSAKGTVEAHGKNVKQKSGLNRSIRDQSWFEFRRQLDYKTQWLGGFLVAVPAQNTSRTCPCCGHIAKENRETQAHFECVECGYTENADVVGAMNVLTRGQAIVQA, MGSDKIHHHHHHMLMNIGKVDNIKIYTLAEDYAGYNSPFWSQHGLSFLIEVESNGIKKRILFDTATYAEPILFNMKLLNINPKSIDMIILSHNHFDHTGGLFGIMKEINKEIPIFAHPNIFKVSFATEPEFMLAGTLNKTLKEDIEKLGGRWVLSRDPIRLMPGIFTLGEIEDEEKINFEKKPTIGLYKLENGRVVLDNVEDEIGLAIVTEKGLIIVSGCSHPGIVSMVKKSIKISGINKVYAVIGGFHLIDADNERIVSTIKALKKLGVKKICTGHCTGFKAENMFMEEFKEDFERLHAGKIIKF, MGSDKIHHHHHHMLQTLQKDAIELLKTLIKTESFSKEEHNTAEILNTFLVERGVETIREKNNVWAFNKHFDKNKPTILLNSHHDTVKPNPGYTNDPFEPIVKDGKLFGLGSNDAGGCLVSLIATFLHFYNETNLKYNFCIAATAEEEISGFDGLELVYPKLGPIDFAIVGEPTLMDIAVAEKGLMVVDCVAIGKAGHAAREEGENAIYIALKDIEWIRNYKFERVSPHLGPMKMSVTIINAGYQHNVVPEKCHFTIDVRITEEYKNEEVLKIIDDNIQSEVNPRSVRLRPSFIDPNHELVHAAIKHGAKTYGSPTTSDQALIPVPSVKMGPGNSARSHTANEFIWLIEIEEGIEKYIKVLSEIVLA, MGSDKIHHHHHHMLSKFWRPQAPQMIGVDIGSYEIKAILLGKTADGYKIQAHSCVPIKKGAVVDHDIRDSAAVIEALKQVKRGLPKSAKFAAVSVSGSAVMTKVIYMDSSLTEEEMEAQIEIEADNLIPYSLDEVSIDFETLKTNKTDPTKVDVLLSACRTENIDSRVDALDAIDIDAKVVDVEGYALGRSAELIMAQLPPGAEEKSVALVDIGANMTTFAVVERGETIFTREQAFGGELFTQAILSTYGMSYDEAENAKIKGELPRNYTFEVLSPFQTQLLQQVKRTLQIYATASGKEKVDYIVLCGGTAKLEGMEALLLNELGINTVVANPFLGCLHGDELIKSQLQPNVNKYMVACGLALRSYAQWRI, MGSDKIHHHHHHMLSNNCSILLIDDDADVLDAYTQLLEQAGYHVSACNNPFDAREQVPKDWPGIVLSDVCMPGCSGIDLMTLFHQDDDLLPILLITGHGDVPMAVEAVKKGAWDFLQKPIDPGKLLTLVDAALRQRQSVIARRQYCQQKLQVELIGRSQWTVRYRQRLQQLAETDIAVWLYGEPGTGRMTGARYLHQLGRHAEGPFIACELTPANAHTLNELIAQAQGGTLVLSHPEHLTHEQQHQLVQLQSHEKRPFRLIGIGSASLVELAASSQIVAELYYCFAMTQIGCQPLSKRPDDIEPLFHHYLQKTCQRLNHPVPEVDAGLLKGMMRRVWPNNVRELANAAELFAVGVLPLAETVNPLMHIGEPTPLDQRVEDVERQIITEALNIHQGRINEVAEYLLIPRKKLYLRMKKYGLNKEHYKGV, MGSDKIHHHHHHMLSTVFRRTMATGRHFIAVCQMTSDNDLEKNFQAAKNMIERAGEKKCEMVFLPECFDFIGLNKNEQIDLAMATDCEYMEKYRELARKHNIWLSLGGLHHKDPSDAAHPWNTHLIIDSDGVTRAEYNKLHLFDLEIPGKVRLMESEFSKAGTEMIPPVDTPIGRLGLSICYDVRFPELSLWNRKRGAQLLSFPSAFTLNTGLAHWETLLRARAIENQCYVVAAAQTGAHNPKRQSYGHSMVVDPWGAVVAQCSERVDMCFAEIDLSYVDTLREMQPVFSHRRSDLYTLHINEKSSETGGLKFARFNIPADHIFYSTPHSFVFVNLKPVTDGHVLVSPKRVVPRLTDLTDAETADLFIVAKKVQAMLEKHHNVTSTTICVQDGKDAGQTVPHVHIHILPRRAGDFGDNEIYQKLASHDKEPERKPRSNEQMAEEAVVYRNLM, MGSDKIHHHHHHMLTPIPQIQHLFATNRRSARWLQLAFLLMALYYAPFSHAACTTPPSNTVLGPYGSSVVGVNGTPQVVASGSGFRCTGSVLSLASTNTITATIQSDSNPSGTTMRMRRGTTTDYVPYSLCMDSGCGTLYNINSTYTWSRTTFLDILGLFNSTDGTMPIYIRTSIGSNVSAGTYTDTVTIKWDYRLCALGILGLCSYDEGSTTSTLNITMTITNDCQITSAPNISFGTAAFPANFAAVNNNLGVRCTLLGAYTVKLVSTHPDDANWRRMTATVGSTPYYLQYQLYRTGNIAWTETNDYSGAGTGITQNIPYTARINASQASKPEGTYKDTVTINVTIN, MGSDKIHHHHHHMLTVNNVSLRYGGRKLFEDVNLKFTPGNCYGIIGANGAGKSTFLKILSGEIEPNTGDVSVDSNTRISVLKQDHFQYDEYEVLETVIMGNERLYSIMKEKDALYAKPDFSEEDGIKASTLEGEFAELNGWEAESEAATLLQGLGISTELHSKKMSELIGGEKVKVLLAQALFGNPGILLLDEPTNHLDIKSIAWLEEFLIDFEGTVIVVSHDRHFLNKVCTMIADVDYGKITLYVGNYDFWYKSSTLALEMTKDQNKKKEEKIKELKDFIARFSANASKSKQATSRKKMLDKLNLEDIKPSNRKYPFIGFKPEREPGNDILTVENLSKTIDGEKVLNNVSFIVSKDDKIALVGDNEIAQTTLFKILSGEMEPDSGSYKWGITITNAYFPKDNSEYFNDCDLSLVDWLRQYSEEKSETYIRGFLGRMLFSGEEALKKASVLSGGEKVRCMLAKTMLTNANFLMFDQPTNHLDLESITALNNGLTNYKSNLMFTSHDHEFIQTIANRIIEITNDGIIDRKCTYDEYLEIQ, MGSDKIHHHHHHMLTYTVYSEAGGVGKTTMAANLAVADARAGHDVLAIDMDPQEGSLSFLFDVADHRTDSEADSLVRHLVERPRGPFSDLIETSEGVDVLPAHNSLEVLSKHLRRREEEAADFGENWNPNVQLLRVLKDAGVPSEYDTVIIDPPATADVKLYNALHATRNLVIPFEPSGKGQQSVAGLADLVTGLEDTLDINVGVLAAVPNRFKGTNDQEEMLKRLQAESYDIPVVFRERTSLLEGCWRKQCSAFKYIEEHRSRERDYEIETLEQFEELAAHLRQTREQEATA, MGSDKIHHHHHHMLVVKDKPKSPISEAYRTLRSNIQFSSFDKDMQLILITSSGPGEGKSTTSCNLALAMAEAGNSVLLLDCDLRKPSVHKKFKISNNIGLSNVLAGQTKFESASHWYNQNLCILTAGKIPPNPAEMLSSKRMKAFLNEAKGVFKYIILDAPPVIAVTDPQILSTMVDGVVLVVSSGVADIEAAKRAKELLENVNANIIGSVLNRVDTESRRGYYGGYYYYYGDEGEKVKKHKDR, MGSDKIHHHHHHMMAKGTLCVLDPASILVVAPHFKRRLSGVTSTVVQLIPQQRRRGLAIATLGPGLPETMPALTFAQMPALWKKPRGASHRVWHARRNLEMLVGVVLRDVLRMPLKLLFTSAAQRHHSRYTRWLISKMDAVVATSARSGSFLHVPHSVIRHGIDTELFHPPQGAEDRIAATNLPGDYLIGCFGRVRHQKGTDLFVKAMIELLPRYPGWTAVVSGRVTPEHKGFAEGLKAQIAAASLTERIVFLGEVEDIKPWYRRLTLYVAPSRNEGFGLTPLEAMASETVVVASDAGAYAELIAEGATGAVVAADAYAPLRDAIEPYLADPGRACLHGKAAVAHVRENFALAREAAGLEAVYSRLLGRPVIAPPAPQP, MGSDKIHHHHHHMMFGYIKPLKCELKVKEYEEFRGYYCGVCKALKKYSIIPRFLLTYEAASLGLLLSSLNNSDLKRKKELCIFTLKKVDFYSSSEIDEVARVFTALLREKLKDNYIDRKNPVYLFASAFLKKDPEISSLFENFYEMEKKEQDFKILAEEQGKIVGTILSKMVKEETQRKILYYLGLSLGKWLYIVDALDDFEKDKRKNVFNPLVKKYNGDLEKARSELRPHLKKCIDEMWKAYDLLDIKRNKTILDNIVYLGIPFITENVLVGKTCNLNHSTIL, MGSDKIHHHHHHMMFVHIADNHLGYRQYNLDDREKDIYDSFKLCIKKILEIKPDVVLHSGDLFNDLRPPVKALRIAMQAFKKLHENNIKVYIVAGNHEMPRRLGEESPLALLKDYVKILDGKDVINVNGEEIFICGTYYHKKSKREEMLDKLKNFESEAKNYKKKILMLHQGINPYIPLDYELEHFDLPKFSYYALGHIHKRILERFNDGILAYSGSTEIIYRNEYEDYKKEGKGFYLVDFSGNDLDISDIEKIDIECREFVEVNIKDKKSFNEAVNKIERCKNKPVVFGKIKREFKPWFDTLKDKILINKAIIVDDEFIDMPDNVDIESLNIKELLVDYANRQGIDGDLVLSLYKALLNNENWKELLDEYYNTKFRG, MGSDKIHHHHHHMMIATFSLSPAGAKRLIARGLINEAVFQQAMTHGRMIIGVGTTNSYIAEELGLLSADEKPRFAAGIVSGGVPCVTAADTRFTSICLENGRIIKDISWEEFIMDFNRDDVFVKGANAFDADGNAGVLLANPRGGTVGGSFGVLAARGCKLLVPVGHEKLIPSCTAAARLMGINRLDYSLGQRCGLALLPAGFAQIYTEIDALKTLFAVEATIVAAGGVSGSEGSVMLAIDGPDEAVKDALALARTLLKEKPLSVPRQSCKDCQASGNCVFKEIPPID, MGSDKIHHHHHHMMITSKSLNRKSIPAPLPSIAEDVLEGLSRTPKSLPPKLLYDATGSDLFEQITCLPEYYPTRTEAGILTVHAEEICSHLRRNVSVSELGAGTATKTRILLRSLVRQQFGVNYFPLDVSDAALQLAKDEVESELSRVKVHPQLGDFDNLTFLEHQSPPRLVLYIGSSIGNLENDAAIALLQNIARNLSTGDKLLLGADLVKDINVMHAAYNDEAGVTALFNKNLLVRINRELSGHFDPESFCHISFWNEAESRIELHLESACRQAVRIDTLDMTFHFDRGERIHTENSYKYTVEHLENLLRSGGFQVEHTWTDPDSWFAVSLGVIT, MGSDKIHHHHHHMMKLIPRSSDISPGIDGICPGPFPPNGFTVLTDAAYGNGDCFGLYWPIGQEHKLPIVCETYHDEWRIVPAFSSIKKFEEWLEVNDDDPHENGISIEDQDFAANLFRVARKCLSTGRLDDALPLLQRATEQLPEVSEYWLALAIQYRRCKKTEAAAQAALNAYLGNWAFGVPDNKVIHLLSQAADVPNFQDDPVIQCIKEQGLDLSFGGTKENNNYPLMQMCVDTYFAQRKPLQALTLLHNYAWIMSSETTAFQERYDFNIDEWRAKFRQLCLEYFGDSRTQFT

— the DeepSol protein solubility set
